According to EP4674870A1 (Sunshine Guojian Pharmaceutical (Shanghai) Co., Ltd., dated 2026):

T1: human TL1A-His protein (human, UniProt O95150 72-251)
T1 construct: also called human TL1A extracellular domain (TL1A-ECD) with 6×His tag
T1 sequence: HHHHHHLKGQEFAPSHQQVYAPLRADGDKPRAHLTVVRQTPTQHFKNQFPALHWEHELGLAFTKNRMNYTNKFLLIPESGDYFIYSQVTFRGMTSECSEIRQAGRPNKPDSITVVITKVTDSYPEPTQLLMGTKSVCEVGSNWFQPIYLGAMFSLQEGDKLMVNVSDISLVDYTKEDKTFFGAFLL


Target: T1, human TL1A-His protein
Experiment: SPR (Biacore 8K), antibody captured on Protein A chip, TL1A-his as analyte

Molecule | Kd [nM] | koff [s⁻¹] | kon [M⁻¹ s⁻¹]
positive control antibody PRA023 | 0.537 | 0.000166 | 308000
humanized antibody 72851 (antibody, human IgG1, kappa, L234A L235A, V domains shown, Humanized from 728H4D9; human IgG1/kappa) VH: QVQLVQSGAEVKKPGASVKVSCKASGYSFTGYTMNWVRQAPGQNLEWIGLINPYSGGTNYNQKFKGRATLTVDTSISTAYMELSRLRSDDTAVYYCASIYQRHDGIAYWGQGTLVTVSS VL: EIVLTQSPDFQSVTPKEKVTITCSASSSVNYMHWYQQKPDQSPKLLIKDTSKLASGVPSRFSGSGSGTDFTLTINSLEAEDAATYYCQQWSSSPYTFGGGTKVEIKR | 0.212 | 0.000212 | 1e+06
humanized antibody 31122 (antibody, human IgG1, kappa, L234A L235A, V domains shown, Humanized from 311C9E10; human IgG1/kappa) VH: EVQLVESGGGLVQPGGSLKLSCAASGFTFSNYWMNWVRQASGKGLEWVGGIRLKSNNYTTQYAESVKGRFTISRDDSKNTAYLQMNSLKTEDTAVYYCTPLLLNGMDYWGQGTTVTVSS VL: EIVLTQSPDFQSVTPKEKVTITCSASSSVSYMHWYQQKPDQSPKLWIYDTSNLASGVPSRFSGSGSGTDFTLTINSLEAEDAATYYCFQESGYPFTFGQGTKLEIKR | 0.394 | 0.000159 | 405000

Target: T1, human TL1A-His protein
Experiment: ELISA

Molecule | binding result
311V25 (antibody, human IgG1, kappa, L234A L235A, V domains shown) VH: EVQLVESGGGLVQPGGSLKLSCAASGFTFSNYWMNWVRQASGKGLEWVGGIRLKSNNYATQYAESVKGRFTISRDDSKNTAYLQMNSLKTEDTAVYYCTPLLLNGMDYWGQGTTVTVSS VL: EIVLTQSPDFQSVTPKEKVTITCSASSSVSYMHWYQQKPDQSPKLWIYDTSNLASGVPSRFSGSGSGTDFTLTINSLEAEDAATYYCFQESGYPFTFGQGTKLEIKR | binds
311V25-7 (antibody, human IgG1, kappa, L234A L235A, V domains shown) VH: EVQLVESGGGLVQPGGSLKLSCAASGFTFSNYWMNWVRQASGKGLEWVGGIRLKSNNYATQYAESVKGRFTISRDDSKNTAYLQMNSLKTEDTAVYYCTPLLLSGMDYWGQGTTVTVSS VL: EIVLTQSPDFQSVTPKEKVTITCSASSSVSYMHWYQQKPDQSPKLWIYDTSNLASGVPSRFSGSGSGTDFTLTINSLEAEDAATYYCFQESGYPFTFGQGTKLEIKR | binds
311V31-7 (antibody, human IgG1, kappa, L234A L235A, V domains shown) VH: EVQLVESGGGLVQPGGSLKLSCAASGFTFSNYWMNWVRQASGKGLEWVGGIRLKSNNYKTQYAESVKGRFTISRDDSKNTAYLQMNSLKTEDTAVYYCTPLLLSGMDYWGQGTTVTVSS VL: EIVLTQSPDFQSVTPKEKVTITCSASSSVSYMHWYQQKPDQSPKLWIYDTSNLASGVPSRFSGSGSGTDFTLTINSLEAEDAATYYCFQESGYPFTFGQGTKLEIKR | binds
311V34-7 (antibody, human IgG1, kappa, L234A L235A, V domains shown) VH: EVQLVESGGGLVQPGGSLKLSCAASGFTFSNYWMNWVRQASGKGLEWVGGIRLKSNNYRTQYAESVKGRFTISRDDSKNTAYLQMNSLKTEDTAVYYCTPLLLSGMDYWGQGTTVTVSS VL: EIVLTQSPDFQSVTPKEKVTITCSASSSVSYMHWYQQKPDQSPKLWIYDTSNLASGVPSRFSGSGSGTDFTLTINSLEAEDAATYYCFQESGYPFTFGQGTKLEIKR | binds
311V34 (antibody, human IgG1, kappa, L234A L235A, V domains shown) VH: EVQLVESGGGLVQPGGSLKLSCAASGFTFSNYWMNWVRQASGKGLEWVGGIRLKSNNYRTQYAESVKGRFTISRDDSKNTAYLQMNSLKTEDTAVYYCTPLLLNGMDYWGQGTTVTVSS VL: EIVLTQSPDFQSVTPKEKVTITCSASSSVSYMHWYQQKPDQSPKLWIYDTSNLASGVPSRFSGSGSGTDFTLTINSLEAEDAATYYCFQESGYPFTFGQGTKLEIKR | binds
311V31 (antibody, human IgG1, kappa, L234A L235A, V domains shown) VH: EVQLVESGGGLVQPGGSLKLSCAASGFTFSNYWMNWVRQASGKGLEWVGGIRLKSNNYKTQYAESVKGRFTISRDDSKNTAYLQMNSLKTEDTAVYYCTPLLLNGMDYWGQGTTVTVSS VL: EIVLTQSPDFQSVTPKEKVTITCSASSSVSYMHWYQQKPDQSPKLWIYDTSNLASGVPSRFSGSGSGTDFTLTINSLEAEDAATYYCFQESGYPFTFGQGTKLEIKR | binds
